The values below are quoted from earlier work in article PMC4893024.

The target of the data set is Cys39 (UniProt position 39, TSPYECGFDPM). Kind of data set: not stated (the cited study [29] is described as SH-reagent sensitivity/labelling of bovine heart SMP with N-ethylmaleimide and N-fluorescein maleimide). The settings on record: Deactive (D) form of complex I, with Cys-39 exposed.

As to “NADH-ubiquinone oxidoreductase chain 3 (ND3 subunit of mitochondrial complex I) (Bos taurus)”, the pKa is given as 10.2.
